Values belong to the molecule of their own block, whether it stands above or below them.
Assays:
CBL G306E = target: T1, CBL G306E (Homo sapiens, UniProt P22681, G306E); assay: In vitro ubiquitination assays with CBL mutant G306E; type: biochemical; settings: CBL mutant that abolishes phospho-tyrosine binding
T1 construct: Residues 25-357 and 2-436 of CBL were cloned in frame into pGEX4T-1; GST (N, cleaved yes); made in house; host or cells: E. coli BL-21
T1 sequence (P22681 2-436 G306E): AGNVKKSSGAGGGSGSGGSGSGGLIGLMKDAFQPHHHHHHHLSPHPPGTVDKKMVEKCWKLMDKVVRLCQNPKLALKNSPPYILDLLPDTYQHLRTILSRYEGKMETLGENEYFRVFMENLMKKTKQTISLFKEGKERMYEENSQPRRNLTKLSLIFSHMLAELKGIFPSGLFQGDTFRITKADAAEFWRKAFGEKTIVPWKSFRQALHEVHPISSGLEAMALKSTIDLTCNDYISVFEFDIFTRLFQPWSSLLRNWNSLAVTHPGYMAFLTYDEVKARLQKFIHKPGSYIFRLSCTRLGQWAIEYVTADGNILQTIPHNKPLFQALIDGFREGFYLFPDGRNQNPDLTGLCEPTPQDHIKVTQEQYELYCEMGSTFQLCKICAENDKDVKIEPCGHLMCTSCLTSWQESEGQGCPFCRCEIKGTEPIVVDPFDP
Procedure: Thus, we tested whether the ability of SLAP2 to promote CBL ubiquitination activity is influenced by canonical TKBD-phospho-tyrosine interactions.
In vitro ubiquitination reactions were prepared with 20 pmol of CBL or pCBL and 60 pmol of hSLAP2 or phosphorylated hSLAP2 (pSLAP2) for both WT and mutants. Reagents were thawed and reactions prepared on ice. […]
Ubiquitination reactions were set up as above (25 µL total volume) in triplicate and diluted with reaction buffer after completion (1:40 for pCBL, 1:15 for all other reactions). […] Wells were washed four times with PBS-T and 25 µL of prepared Immobilon Western Chemiluminescent HRP Substrate (Millipore #P90719) added to each well immediately prior to the plate being read on a Synergy Neo2 Plate Reader (BioTek Instruments). […] Standard deviation of the reaction averages was calculated and used as a measure of error. Each reaction set was analyzed at least twice with fresh protein purifications.

CBL (47-357) S226E = target: T2, CBL (47-357) S226E (UniProt P22681 47-357); assay: Ni-NTA co-purification from Duet co-expression, high salt (0.5 M NaCl), Coomassie SDS-PAGE
T2 construct: range 47-357; Point mutant within Duet-His-Δlinker-hSLAP2-CBL; also called S226E (CBL mutant)
T2 sequence (looked up): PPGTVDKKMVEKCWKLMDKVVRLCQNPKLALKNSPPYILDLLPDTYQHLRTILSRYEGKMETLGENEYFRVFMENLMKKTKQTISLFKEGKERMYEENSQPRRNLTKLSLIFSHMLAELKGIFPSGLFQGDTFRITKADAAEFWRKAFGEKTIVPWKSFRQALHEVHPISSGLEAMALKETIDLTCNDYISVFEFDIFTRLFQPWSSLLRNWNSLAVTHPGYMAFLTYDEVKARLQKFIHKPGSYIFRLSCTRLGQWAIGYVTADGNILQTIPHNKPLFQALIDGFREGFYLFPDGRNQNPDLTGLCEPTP
Procedure: Cell pellets were resuspended in either high or low salt (as for high salt except 25 mM HEPEs pH 7.5, 150 mM NaCl) lysis buffer and purified as above on Ni-NTA agarose (Qiagen) with wash buffer (25 mM HEPEs pH 7.5, 150 mM NaCl, 2% glycerol, 20 mM imidazole, 10 mM βME). Bead slurry was mixed with SDS 2X loading buffer (125 mM Tris pH 6.8, 4% SDS, 20% glycerol, 0.715 M βME, bromophenol blue), boiled, and analyzed by 10 or 12.5% SDS-PAGE, stained with Coomassie blue.

B1: pSLAP2: tyrosine phosphorylated SLAP2 expressed in TKB1 cells (protein, UniProt Q9H6Q3 2-261, looked up)
Src-like-adapter 2: GSLPSRRKSLPSPSLSSSVQGQGPVTMEAERSKATAVALGSFPAGGPAELSLRLGEPLTIVSEDGDWWTVLSEVSGREYNIPSVHVAKVSHGWLYEGLSREKAEELLLLPGNPGGAFLIRESQTRRGSYSLSVRLSRPASWDRIRHYRIHCLDNGWLYISPRLTFPSLQALVDHYSELADDICCLLKEPCVLQRAGPLPGKDIPLPVTVQRTPLNWKELDSSLLFSEAATGEESLLSEGLRESLSFYISLNDEAVSLDDA
modifications: tyrosine phosphorylated
notes: tyrosine phosphorylated SLAP2 expressed in TKB1 cells
CBL G306E ubiquitination activity (CBL G306E): stimulated CBL G306E ubiquitination activity

binding result (CBL (47-357) S226E): no binding
B2: Trx-His(6)-Δlinker-hSLAP2 (human SLAP2 29-261) (other)
chain: EAERSKATAVALGSFPAGGPAELSLRLGEPLTIVSEDGDWWTVLSEVSGREYNIPSVHVAKVSHGWLYEGLSREKAEELLLLPGNPGGAFLIRESQTRRGSYSLSVRLSRPASWDRIRHYRIHCLDNGWLYISPRLTFPSLQALVDHYSELADDICCLLKEPCVLQRAGPLPGKDIPLPVTVQRTPLNWKELDSSLLFSEAATGEESLLSEGLRESLSFYISLNDEAVSLDDA
notes: also called Trx-His-SLAP2; SLAP2 WT; not shown: N-terminal thioredoxin (Trx)-His(6)-TEV-site tag and linker of the modified pET32a (Δlinker version)

— patent US20230212239A1, “INHIBITORS OF CBL AUTOINHIBITION AND RELATED METHODS” (THE HOSPITAL FOR SICK CHILDREN, priority 2020, published 2023)
